This note sets out measurements from paper PMC7672443, “Structural basis of the XPB helicase–Bax1 nuclease complex interacting with the repair bubble DNA” (Nucleic Acids Research, 2020).

One data set concerns the target T1, StXPB-Bax1^ΔC (Sulfurisphaera tokodaii, UniProt Q970I2).
T1 construct: gene xpb2
As to conditions: phosphate in the ATP-binding site of XPB, DNA-free heterodimer; NH4-citrate pH 7.5, PEG3350.

Data set [1] deals with T2, StXPB (Sulfurisphaera tokodaii, UniProt Q970I2 2-439).
T2 sequence: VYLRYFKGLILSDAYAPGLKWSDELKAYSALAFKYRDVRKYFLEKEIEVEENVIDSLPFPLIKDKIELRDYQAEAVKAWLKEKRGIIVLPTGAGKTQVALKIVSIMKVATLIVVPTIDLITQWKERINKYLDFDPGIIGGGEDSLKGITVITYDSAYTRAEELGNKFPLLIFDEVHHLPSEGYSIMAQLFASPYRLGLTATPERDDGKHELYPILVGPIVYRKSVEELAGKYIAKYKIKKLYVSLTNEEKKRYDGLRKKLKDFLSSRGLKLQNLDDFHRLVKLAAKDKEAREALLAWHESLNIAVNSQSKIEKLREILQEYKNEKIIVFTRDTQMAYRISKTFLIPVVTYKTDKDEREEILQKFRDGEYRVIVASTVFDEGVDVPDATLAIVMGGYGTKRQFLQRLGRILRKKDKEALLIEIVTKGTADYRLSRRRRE
In words: EMSA; stable complex at high protein:DNA ratio; EMSA: 25 mM Tris-Cl pH 7.5, 100 mM NaCl, 5% glycerol, 1 mM DTT, room temperature 40 min; 0.8 uM forked DNA or 0.3 uM bubble DNA; 4% TBE native gel, ethidium bromide. The following applies: protein: recombinant; tags: N-terminal His8 (PreScission; removed); 3 nt mismatch bubble. In general terms: In EMSA bound probe runs differently from free probe, usually more slowly.

The target of data set [2] is T2, StXPB. In words: EMSA; stable complex; EMSA: 25 mM Tris-Cl pH 7.5, 100 mM NaCl, 5% glycerol, 1 mM DTT, room temperature 40 min; 0.8 uM forked DNA or 0.3 uM bubble DNA; 4% TBE native gel, ethidium bromide. As to conditions: protein: recombinant, tags: N-terminal His8 (PreScission; removed).
The target of data set [3] is T2, StXPB. In words: EMSA; lower affinity than with Bax1; EMSA: 25 mM Tris-Cl pH 7.5, 100 mM NaCl, 5% glycerol, 1 mM DTT, room temperature 40 min; 0.8 uM forked DNA or 0.3 uM bubble DNA; 4% TBE native gel, ethidium bromide. As to conditions: protein: recombinant; tags: N-terminal His8 (PreScission; removed); fork: 22 bp duplex, 10 nt arms.

T1 sequence (Q970I1 2-373 partner, one chain of several): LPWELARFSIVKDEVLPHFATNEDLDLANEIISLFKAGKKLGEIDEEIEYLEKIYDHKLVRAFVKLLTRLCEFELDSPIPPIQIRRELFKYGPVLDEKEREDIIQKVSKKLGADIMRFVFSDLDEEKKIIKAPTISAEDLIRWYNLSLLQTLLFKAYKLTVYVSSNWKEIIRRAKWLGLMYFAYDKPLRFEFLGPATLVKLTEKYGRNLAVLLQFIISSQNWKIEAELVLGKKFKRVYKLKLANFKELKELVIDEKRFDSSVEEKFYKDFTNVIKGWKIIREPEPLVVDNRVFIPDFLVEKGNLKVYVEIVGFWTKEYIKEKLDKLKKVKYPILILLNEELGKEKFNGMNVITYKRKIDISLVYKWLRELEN

Regarding `O=P(O)(O)O` [phosphate ion], the “X-ray crystallography, 2.96 Å” value on StXPB-Bax1^ΔC is “the ATP binding site of XPB contains a bound phosphate ion”.

B1: bubble-3 DNA (dsDNA)
DNA 1: TAGTCACAGCTGATTTTGCTCTGCTCCATAGT
DNA 2: ACTATGGAGCAGAGCTTTATCAGCTGTGACTA
Consider B1, for which the binding result with StXPB [1] was “binds”.

B2: bubble-4 DNA (dsDNA)
DNA 1: TAGTCACAGCTGATTTTTCTCTGCTCCATAGT
DNA 2: ACTATGGAGCAGAGTTTTATCAGCTGTGACTA
For B2, in the data set with StXPB [2] (4 nt mismatch bubble), the binding result is reported as “binds”.

B3: bubble-5 DNA (dsDNA)
DNA 1: TAGTCACAGCTGATTTTTCTCTGCTCCATAGT
DNA 2: ACTATGGAGCAGAGTTTTTTCAGCTGTGACTA
Consider B3, for which the binding result with StXPB [2] (32 nt strands, blunt, internal 5 nt T:T mismatch bubble) is “binds”.

B4: forked DNA (dsDNA)
DNA 1: TAGTCACAGCTGATTGCGCTCTGCTCCATAGT
DNA 2: TGATACTTCGAGAGCGCAATCAGCTGTGACTA
For B4, the binding result in the data set with StXPB [3] was “binds”.
